Results: publication doi:10.1101/852095 (bioRxiv, 2019)
Blank lines part the entries; values can stand above or below the binder they belong to.

Target: recombinant NPM1 (Nucleophosmin), probe of the protein array (human, UniProt P06748 1-294)
Assay: peptide or protein array

recombinant NPM1 (Nucleophosmin), probe of the protein array, sequence (P06748 whole entry): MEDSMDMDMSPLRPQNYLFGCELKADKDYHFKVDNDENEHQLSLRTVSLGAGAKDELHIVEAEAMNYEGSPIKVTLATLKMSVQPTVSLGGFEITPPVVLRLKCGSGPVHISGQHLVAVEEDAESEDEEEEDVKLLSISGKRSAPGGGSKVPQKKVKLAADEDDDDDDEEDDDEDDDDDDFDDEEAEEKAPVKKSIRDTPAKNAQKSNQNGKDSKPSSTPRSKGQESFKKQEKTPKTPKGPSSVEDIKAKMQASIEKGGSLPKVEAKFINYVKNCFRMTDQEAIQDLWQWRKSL

binding result: binds
B2: GTF2E2 (natural protein, human, UniProt P29084 1-291, looked up)
chain: MDPSLLRERELFKKRALSTPVVEKRSASSESSSSSSKKKKTKVEHGGSSGSKQNSDHSNGSFNLKALSGSSGYKFGVLAKIVNYMKTRHQRGDTHPLTLDEILDETQHLDIGLKQKQWLMTEALVNNPKIEVIDGKYAFKPKYNVRDKKALLRLLDQHDQRGLGGILLEDIEEALPNSQKAVKALGDQILFVNRPDKKKILFFNDKSCQFSVDEEFQKLWRSVTVDSMDEEKIEEYLKRQGISSMQESGPKKVAPIQRRKKPASQKKRRFKTHNEHLAGVLKDYSDITSSK

binding result: binds
B5: MED11 (natural protein, human, UniProt Q9P086 1-117, looked up)
chain: MATYSLANERLRALEDIEREIGAILQNAGTVILELSKEKTNERLLDRQAAAFTASVQHVEAELSAQIRYLTQVATGQPHEGSSYSSRKDCQMALKRVDYARLKLSDVARTCEQMLEN

The remaining lines, values behind:

B1: MED31 (natural protein, human, UniProt Q9Y3C7 1-131, looked up)
chain: MAAAVAMETDDAGNRLRFQLELEFVQCLANPNYLNFLAQRGYFKDKAFVNYLKYLLYWKDPEYAKYLKYPQCLHMLELLQYEHFRKELVNAQCAKFIDEQQILHWQHYSRKRMRLQQALAEQQQQNNTSGK
binding result: binds

B3: GTF2A2 (natural protein, human, UniProt P52657 1-109, looked up)
chain: MAYQLYRNTTLGNSLQESLDELIQSQQITPQLALQVLLQFDKAINAALAQRVRNRVNFRGSLNTYRFCDNVWTFVLNDVEFREVTELIKVDKVKIVACDGKNTGSNTTE
binding result: binds

B4: TAF9 (natural protein, human, UniProt Q16594 1-264, looked up)
chain: MESGKTASPKSMPKDAQMMAQILKDMGITEYEPRVINQMLEFAFRYVTTILDDAKIYSSHAKKATVDADDVRLAIQCRADQSFTSPPPRDFLLDIARQRNQTPLPLIKPYSGPRLPPDRYCLTAPNYRLKSLQKKASTSAGRITVPRLSVGSVTSRPSTPTLGTPTPQTMSVSTKVGTPMSLTGQRFTVQMPTSQSPAVKASIPATSAVQNVLINPSLIGSKNILITTNMMSSQNTANESSNALKRKREDDDDDDDDDDDYDNL
binding result: binds
